For test [1], the target named is T1, FGFR1 (full length, from cell lysates; endogenous or SK-OV-3 cells transiently transfected with FGFR1 cDNA) (human, UniProt P11362 22-822).
T1 construct: whole, on cells; Tested from detergent cell lysates (co-IP, GST pull-down); also called fibroblast growth factor receptor 1
As to the kind of experiment: co-IP with OPCML Ab, immunoblot with anti-FGFR1 ECD Ab, FIG. 2A(ii). The procedure:
Cell layers were washed in PBS and incubated for 30 minutes in lysis buffer (1% TritonX-100, 10 mM Tris pH8.0, 150 mM NaCl, 2.5 mM MgCl₂, 5 mM EGTA, 1 mM Na₃VO₄, 50 mM NaF and […] (Roche). Cell Lysates were then cleared by centrifugation at 13,000 rpm for 20 minutes at 4° C. and aliquots containing equal amounts of protein were incubated with the appropriate antibody before addition of secondary antibody conjugated to sepharose resin. Beads were then washed 3× with lysis buffer and eluted by heating for 5 minutes in […] of SDS sample buffer.

Test [2] concerns the target HER2 (full length, from SK-OV-3 derived cell lysates) (human, UniProt P04626 23-1255). Kind of test: cell-based or functional assay.
The target of test [3] is T2, EphA2 (from cell lysates) (human, UniProt P29317 24-976).
T2 construct: whole, on cells; Tested by co-immunoprecipitation from cell lysates
As to the kind of experiment: co-IP and reciprocal co-IP, FIG. 17A.

T1 sequence (P11362 22-822): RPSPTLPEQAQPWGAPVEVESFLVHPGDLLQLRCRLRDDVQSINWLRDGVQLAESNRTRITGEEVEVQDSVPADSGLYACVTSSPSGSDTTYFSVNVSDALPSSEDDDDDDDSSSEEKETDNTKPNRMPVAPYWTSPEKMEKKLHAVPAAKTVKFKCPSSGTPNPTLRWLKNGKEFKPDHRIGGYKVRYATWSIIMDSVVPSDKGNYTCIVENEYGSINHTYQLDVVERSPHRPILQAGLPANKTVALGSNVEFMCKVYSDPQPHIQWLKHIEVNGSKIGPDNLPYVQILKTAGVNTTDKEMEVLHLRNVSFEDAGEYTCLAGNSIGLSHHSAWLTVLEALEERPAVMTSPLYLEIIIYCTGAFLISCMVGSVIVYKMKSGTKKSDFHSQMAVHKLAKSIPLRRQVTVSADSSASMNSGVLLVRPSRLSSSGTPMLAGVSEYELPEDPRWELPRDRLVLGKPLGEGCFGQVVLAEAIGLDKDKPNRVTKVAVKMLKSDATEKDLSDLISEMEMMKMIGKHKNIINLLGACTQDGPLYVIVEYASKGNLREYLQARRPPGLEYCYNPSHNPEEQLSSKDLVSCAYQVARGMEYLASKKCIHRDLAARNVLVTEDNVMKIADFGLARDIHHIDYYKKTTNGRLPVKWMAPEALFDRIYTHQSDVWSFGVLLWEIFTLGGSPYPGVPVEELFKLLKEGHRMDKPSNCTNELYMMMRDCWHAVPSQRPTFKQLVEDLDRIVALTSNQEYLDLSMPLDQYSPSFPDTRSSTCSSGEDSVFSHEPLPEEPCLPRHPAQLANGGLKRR

B1: OPCML (opioid binding protein cell adhesion molecule), human, expressed in cells (stably transfected SK-OV-3 lines BKS2.1 and SKOBS-3.5) (other)
chain: GVPVRSGDATFPKAMDNVTVRQGESATLRCTIDDRVTRVAWLNRSTILYAGNDKWSIDPRVIILVNTPTQYSIMIQNVDVYDEGPYTCSVQTDNHPKTSRVHLIVQVPPQIMNISSDITVNEGSSVTLLCLAIGRPEPTVTWRHLSVKEGQGFVSEDEYLEISDIKRDQSGEYECSALNDVAAPDVRKVKITVNYPPYISKAKNTGVSVGQKGILSCEASAVPMAEFQWFKEETRLATGLDGMRIENKGRMSTLTFFNVSEKDYGNYTCVATNKLGNTNASITLYGPGAVIDGVN
modifications: GPI anchor at N322; N-linked glycosylation
notes: Full OPCML cDNA in pcDNA3.1zeo, expressed in SK-OV-3 derived lines; immunoprecipitated from Triton X-100 cell lysates; also called OBCAM; OPCML polypeptide
With B1, the binding result in test [1] and in test [3] was “binds” in each case. Also, the “fold decrease in effective concentration of lapatinib required to abolish the EGF induced phospho-ERK signal, BKS2.1 against SKOBS-V1.2” value in test [2] was found to be 10 fold.

These data come from patent publication US20130171133A1 (IMPERIAL INNOVATIONS, published 2013).
